Values quoted from earlier work, collected in patent publication US5993783A, “Method and apparatus for pulmonary administration of dry powder α1-antitrypsin” (Inhale Therapeutic Systems, priority 1998, dated 1999).

Details: similar sheep model, Smith et al. 1989

For “α1AT: α1-antitrypsin, a protease inhibitor with inhibitory activity toward neutrophil elastase”, the “rate of clearance of α1AT out of the lungs, % of the total rate of α1AT transported out of the lung” value is listed as 16.1±10.4%.
